# Laboratory results from PMC13649778, “Unraveling single-molecule reactions via multiplexed in-situ DNA sequencing”.
# B1: CAPcons (consensus, pure; CAPcons_C, top 5G) (dsDNA)
# DNA 1: GGCAGTGAGCTCTACGCAATAAATGTGATCTAGATCACATTTTAGGCAC
# DNA 2: GTGCCTAAAATGTGATCTAGATCACATTTATTGCGTAGAGCTCACTGCC
# B2: CAPcons library member CAPcons_A (top 5T; table letter taken as bottom-strand base) (dsDNA)
# DNA 1: GGCAGTGAGCTCTACGCAATAAATTTGATCTAGATCACATTTTAGGCAC
# DNA 2: GTGCCTAAAATGTGATCTAGATCAAATTTATTGCGTAGAGCTCACTGCC
# B3: CAPcons library member CAPcons_T (top 5A; table letter taken as bottom-strand base) (dsDNA)
# DNA 1: GGCAGTGAGCTCTACGCAATAAATATGATCTAGATCACATTTTAGGCAC
# DNA 2: GTGCCTAAAATGTGATCTAGATCATATTTATTGCGTAGAGCTCACTGCC
# B4: CAPcons library member CAPcons_C (consensus, top 5G) (dsDNA)
# DNA 1: GGCAGTGAGCTCTACGCAATAAATGTGATCTAGATCACATTTTAGGCAC
# DNA 2: GTGCCTAAAATGTGATCTAGATCACATTTATTGCGTAGAGCTCACTGCC
# B5: CAPcons position 5 C:G variant (pure; CAPcons_G) (dsDNA)
# DNA 1: GGCAGTGAGCTCTACGCAATAAATCTGATCTAGATCACATTTTAGGCAC
# DNA 2: GTGCCTAAAATGTGATCTAGATCAGATTTATTGCGTAGAGCTCACTGCC
# B6: CAPcons library member CAPcons_G (top 5C) (dsDNA)
# DNA 1: GGCAGTGAGCTCTACGCAATAAATCTGATCTAGATCACATTTTAGGCAC
# DNA 2: GTGCCTAAAATGTGATCTAGATCAGATTTATTGCGTAGAGCTCACTGCC
# Assays:
# [1] = biological target: T1, Alexa647-CAP (CAP-(Cys17;Ser178), catabolite activator protein) (Escherichia coli, UniProt P0ACJ8 1-210, H18C;C179S); assay: single-molecule fluorescence (koff/kon); 0.2 mM cAMP, 10 mM Mg2+; 40 mM Tris pH 8, 100 mM KCl, 10 mM MgCl2, 5% glycerol, 0.2 mM cAMP, 1 mM TROLOX, glucose oxidase/catalase; 1.25 nM (pure) or 2.5 nM (library) Alexa647-CAP; temperature not stated; details: protein: recombinant; tags: His6; Alexa647 maleimide (40% labelled); chain copies: 2; label: Cy3B at top position 13; 5' biotin on bottom strand; blunt
# [2] = biological target: T1, Alexa647-CAP (CAP-(Cys17;Ser178), …); assay: single-molecule fluorescence (SPIN-Seq library); 0.2 mM cAMP, 10 mM Mg2+; 40 mM Tris pH 8, 100 mM KCl, 10 mM MgCl2, 5% glycerol, 0.2 mM cAMP, 1 mM TROLOX, glucose oxidase/catalase; 1.25 nM (pure) or 2.5 nM (library) Alexa647-CAP; temperature not stated; details: protein: recombinant; tags: His6; Alexa647 maleimide (40% labelled); chain copies: 2; label: Cy3B at top position 11; 5' biotin on bottom strand; blunt
binder,measurement,setting,value
B1,Kd,[1],9.1 ± 0.6 nM
B2,Kd,[2],29.1 ± 1.6 nM
B3,Kd,[2],24.4 ± 0.8 nM
B4,Kd,[2],10.6 ± 0.6 nM
B5,Kd,[1],20.2 ± 1.3 nM
B6,Kd,[2],20.1 ± 0.9 nM
